Measured values taken from patent US20100015170A1.

Key:
[1] = target: human Toll-like receptor 5 (human) (UniProt O60602); test: cell-based or functional assay
[2] = target: mouse Toll-like receptor 5 (mouse) (UniProt Q9JLF7); test: cell-based or functional assay
UniProt Q9JLF7, sequence (Q9JLF7 27-859): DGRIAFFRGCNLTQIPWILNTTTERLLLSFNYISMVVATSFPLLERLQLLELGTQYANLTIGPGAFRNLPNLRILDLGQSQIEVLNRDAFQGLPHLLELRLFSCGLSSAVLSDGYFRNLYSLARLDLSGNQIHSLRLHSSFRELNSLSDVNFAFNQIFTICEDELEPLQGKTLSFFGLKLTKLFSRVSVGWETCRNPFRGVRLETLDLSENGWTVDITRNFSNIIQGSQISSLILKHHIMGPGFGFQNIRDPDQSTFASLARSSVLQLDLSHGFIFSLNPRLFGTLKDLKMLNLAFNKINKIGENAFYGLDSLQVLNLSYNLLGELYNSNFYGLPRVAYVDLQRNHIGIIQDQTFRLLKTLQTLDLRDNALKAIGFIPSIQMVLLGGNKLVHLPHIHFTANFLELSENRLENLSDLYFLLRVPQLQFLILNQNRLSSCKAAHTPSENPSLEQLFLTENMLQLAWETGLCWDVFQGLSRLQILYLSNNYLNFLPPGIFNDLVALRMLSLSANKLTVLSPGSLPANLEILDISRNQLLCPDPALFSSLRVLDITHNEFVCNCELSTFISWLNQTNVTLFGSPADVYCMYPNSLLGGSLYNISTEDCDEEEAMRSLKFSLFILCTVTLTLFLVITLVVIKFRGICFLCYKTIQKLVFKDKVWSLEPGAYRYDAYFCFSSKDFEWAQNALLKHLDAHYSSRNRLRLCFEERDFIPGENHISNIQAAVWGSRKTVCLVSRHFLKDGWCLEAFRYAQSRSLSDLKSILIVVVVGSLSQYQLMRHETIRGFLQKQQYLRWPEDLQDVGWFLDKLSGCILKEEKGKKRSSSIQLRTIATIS

UniProt O60602, sequence (O60602 21-858): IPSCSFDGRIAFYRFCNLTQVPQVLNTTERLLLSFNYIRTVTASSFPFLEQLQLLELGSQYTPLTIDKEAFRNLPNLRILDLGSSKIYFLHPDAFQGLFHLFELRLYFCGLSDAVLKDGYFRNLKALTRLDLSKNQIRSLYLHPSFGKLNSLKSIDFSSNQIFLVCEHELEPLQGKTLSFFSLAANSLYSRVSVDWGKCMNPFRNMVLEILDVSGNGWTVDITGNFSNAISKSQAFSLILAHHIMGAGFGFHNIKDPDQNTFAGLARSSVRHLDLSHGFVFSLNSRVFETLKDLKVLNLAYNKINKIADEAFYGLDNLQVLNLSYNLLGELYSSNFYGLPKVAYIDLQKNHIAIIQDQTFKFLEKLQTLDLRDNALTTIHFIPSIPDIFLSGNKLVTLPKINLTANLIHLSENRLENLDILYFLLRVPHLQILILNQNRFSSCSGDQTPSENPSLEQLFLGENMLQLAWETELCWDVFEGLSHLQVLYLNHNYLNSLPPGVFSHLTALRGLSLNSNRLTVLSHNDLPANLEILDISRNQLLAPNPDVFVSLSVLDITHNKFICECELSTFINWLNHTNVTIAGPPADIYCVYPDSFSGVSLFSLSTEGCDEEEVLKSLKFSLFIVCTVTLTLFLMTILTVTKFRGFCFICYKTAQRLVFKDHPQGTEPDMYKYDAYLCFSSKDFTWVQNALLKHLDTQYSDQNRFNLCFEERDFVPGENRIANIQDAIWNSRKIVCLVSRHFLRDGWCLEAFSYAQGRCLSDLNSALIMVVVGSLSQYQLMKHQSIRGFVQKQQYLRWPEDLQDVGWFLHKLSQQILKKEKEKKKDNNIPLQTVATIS

| Substance | TLR5-mediated NF-κB activation (luciferase, HEK293 cells with human TLR5) (fold lower than FliC WT) [1] | TLR5-mediated NF-κB activation (luciferase, HEK293 cells with mouse TLR5) (fold lower than FliC WT) [2] |
| --- | --- | --- |
| recombinant mutant flagellin FliC L88A (from UniProt P72151 2-488) (ligand) | > 100 | > 100 |
| recombinant mutant flagellin FliC R90A (from UniProt P72151 2-488) (ligand) | > 100 | > 100 |
